{"source": "paper PMC6891087", "key": {"[1]": {"biological_target": "nucleosome core particle with histone H3 phosphorylated at Thr3 (human | not stated | Xenopus laevis) (UniProt P04908)", "assay": "SPR; biotinylated NCPs immobilised (~500 RU) on a streptavidin chip, BIAcore T200; analytes 7.8 to 1,000 nM; 8°C; 25 mM Hepes, 250 mM NaCl, 1 mM DTT, 0.05% Tween-20, pH 8; steady-state 1:1 fit"}, "[2]": {"biological_target": "unmodified nucleosome core particle (human | Xenopus laevis) (UniProt P04908)", "assay": "SPR; biotinylated NCPs immobilised (~500 RU) on a streptavidin chip, BIAcore T200; analytes 7.8 to 1,000 nM; 8°C; 25 mM Hepes, 250 mM NaCl, 1 mM DTT, 0.05% Tween-20, pH 8; steady-state 1:1 fit"}, "[3]": {"system": "CPC_LM (Borealin-Survivin-INCENP1-58)", "assay": "SPR", "settings": "SPR: 25 mM Hepes pH 8, 250 mM NaCl, 1 mM DTT, 0.05% Tween-20, 8 C, EMSA: 10 mM Tris pH 7.5, 100 mM NaCl, 1 mM MgCl2, 1 mM DTT, 1% glycerol, 0.1 mg/ml BSA, 20 nM"}, "CPC_LM BOR delta-loop": {"system": "CPC_LM BOR delta-loop", "assay": "SPR", "settings": "apparent, from normalized response; >=20 in review history; SPR: 25 mM Hepes pH 8, 250 mM NaCl, 1 mM DTT, 0.05% Tween-20, 8 C; EMSA: 10 mM Tris pH 7.5, 100 mM NaCl, 1 mM MgCl2, 1 mM DTT, 1% glycerol, 0.1 mg/ml BSA, 20 nM"}, "Sumo-Borealin110-188": {"system": "Sumo-Borealin110-188", "assay": "SPR", "settings": "apparent, from normalized response; SPR: 25 mM Hepes pH 8, 250 mM NaCl, 1 mM DTT, 0.05% Tween-20, 8 C; EMSA: 10 mM Tris pH 7.5, 100 mM NaCl, 1 mM MgCl2, 1 mM DTT, 1% glycerol, 0.1 mg/ml BSA, 20 nM"}, "Sumo-Borealin110-206": {"system": "Sumo-Borealin110-206", "assay": "SPR", "settings": "apparent, from normalized response; SPR: 25 mM Hepes pH 8, 250 mM NaCl, 1 mM DTT, 0.05% Tween-20, 8 C; EMSA: 10 mM Tris pH 7.5, 100 mM NaCl, 1 mM MgCl2, 1 mM DTT, 1% glycerol, 0.1 mg/ml BSA, 20 nM"}, "Sumo-Borealin189-206": {"system": "Sumo-Borealin189-206", "assay": "SPR", "settings": "apparent, from normalized response; SPR: 25 mM Hepes pH 8, 250 mM NaCl, 1 mM DTT, 0.05% Tween-20, 8 C; EMSA: 10 mM Tris pH 7.5, 100 mM NaCl, 1 mM MgCl2, 1 mM DTT, 1% glycerol, 0.1 mg/ml BSA, 20 nM"}, "CPC_LM BOR K12/R17/K20E": {"system": "CPC_LM BOR K12/R17/K20E", "assay": "SPR", "settings": "SPR: 25 mM Hepes pH 8, 250 mM NaCl, 1 mM DTT, 0.05% Tween-20, 8 C, EMSA: 10 mM Tris pH 7.5, 100 mM NaCl, 1 mM MgCl2, 1 mM DTT, 1% glycerol, 0.1 mg/ml BSA, 20 nM"}, "CPC_LM BOR 10-end": {"system": "CPC_LM BOR 10-end", "assay": "SPR", "settings": "SPR: 25 mM Hepes pH 8, 250 mM NaCl, 1 mM DTT, 0.05% Tween-20, 8 C; EMSA: 10 mM Tris pH 7.5, 100 mM NaCl, 1 mM MgCl2, 1 mM DTT, 1% glycerol, 0.1 mg/ml BSA, 20 nM"}, "CPC_LM BOR K198/T199E": {"system": "CPC_LM BOR K198/T199E", "assay": "SPR", "settings": "SPR: 25 mM Hepes pH 8, 250 mM NaCl, 1 mM DTT, 0.05% Tween-20, 8 C; EMSA: 10 mM Tris pH 7.5, 100 mM NaCl, 1 mM MgCl2, 1 mM DTT, 1% glycerol, 0.1 mg/ml BSA, 20 nM"}, "CPC_LM delta110-188": {"system": "CPC_LM delta110-188", "assay": "SPR", "settings": "SPR: 25 mM Hepes pH 8, 250 mM NaCl, 1 mM DTT, 0.05% Tween-20, 8 C; EMSA: 10 mM Tris pH 7.5, 100 mM NaCl, 1 mM MgCl2, 1 mM DTT, 1% glycerol, 0.1 mg/ml BSA, 20 nM"}, "CPC_LM delta189-206": {"system": "CPC_LM delta189-206", "assay": "SPR", "settings": "SPR: 25 mM Hepes pH 8, 250 mM NaCl, 1 mM DTT, 0.05% Tween-20, 8 C; EMSA: 10 mM Tris pH 7.5, 100 mM NaCl, 1 mM MgCl2, 1 mM DTT, 1% glycerol, 0.1 mg/ml BSA, 20 nM"}, "[4]": {"settings": "histone H3 phospho-T3 (native chemical ligation; C110A, residue 32 C)"}}, "data": [{"substance": "CPC localization module (Borealin-Survivin-INCENP 1-58) (from UniProt Q53HL2 1-280; O15392 1-142; Q9NQS7 1-58) (complex)", "values": [{"measurement": "Kd", "setting": "[1]", "result": 103, "unit": "nM"}, {"measurement": "Kd", "setting": "[2]", "result": 295, "unit": "nM"}, {"measurement": "stoichiometry N (CPC LM dimer per NCP)", "setting": "[2]", "result": 1}]}, {"substance": "CPC_LM containing Borealin 10-end (from UniProt Q53HL2 10-280; O15392 1-142; Q9NQS7 1-58) (complex)", "values": [{"measurement": "Kd", "setting": "[2]", "result": 860, "unit": "nM"}]}, {"substance": "CPC_LM containing Borealin K12/R17/K20E (from UniProt Q53HL2 1-280; O15392 1-142; Q9NQS7 1-58) (complex)", "values": [{"measurement": "Kd", "setting": "[2]", "result": 528, "unit": "nM"}]}, {"substance": "CPC_LM containing Borealin lacking the C-terminal half of the loop (residues 189-206) (from UniProt Q53HL2 1-280; O15392 1-142; Q9NQS7 1-58) (complex)", "values": [{"measurement": "Kd", "setting": "[2]", "result": 260, "unit": "nM"}]}, {"substance": "CPC_LM containing Borealin lacking the N-terminal half of the loop (residues 110-188) (from UniProt Q53HL2 1-280; O15392 1-142; Q9NQS7 1-58) (complex)", "values": [{"measurement": "Kd", "setting": "[2]", "result": 1800, "unit": "nM"}]}, {"substance": "DNA (SPR ligand; presumably 601)", "values": [{"measurement": "Kd", "setting": "[3]; apparent, from normalized response, >=5 in review history", "result": 5000, "unit": "nM"}, {"measurement": "Kd", "setting": "CPC_LM BOR delta-loop", "result": 20000, "unit": "nM"}, {"measurement": "Kd", "setting": "Sumo-Borealin110-188", "result": 10000, "unit": "nM"}, {"measurement": "Kd", "setting": "Sumo-Borealin110-206", "result": 5000, "unit": "nM"}, {"measurement": "Kd", "setting": "Sumo-Borealin189-206", "result": 20000, "unit": "nM"}]}, {"substance": "H3T3ph NCP (601)", "values": [{"measurement": "Kd", "setting": "[3]; [4]", "result": 103, "unit": "nM"}, {"measurement": "Kd", "setting": "CPC_LM BOR K12/R17/K20E; [4]", "result": 672, "unit": "nM"}]}, {"substance": "unmodified NCP (601)", "values": [{"measurement": "Kd", "setting": "[3]", "result": 295, "unit": "nM"}, {"measurement": "Kd", "setting": "CPC_LM BOR 10-end", "result": 860, "unit": "nM"}, {"measurement": "Kd", "setting": "CPC_LM BOR K12/R17/K20E", "result": 528, "unit": "nM"}, {"measurement": "Kd", "setting": "CPC_LM BOR K198/T199E", "result": 400, "unit": "nM"}, {"measurement": "Kd", "setting": "CPC_LM delta110-188", "result": 1800, "unit": "nM"}, {"measurement": "Kd", "setting": "CPC_LM delta189-206", "result": 260, "unit": "nM"}]}]}
